Laboratory results taken from patent publication US20170165373A1 (Amgen, published 2017).
Numbering of substitutions follows the chain as printed. Numbers in names are those of the source.

B1: 32B5 (antibody, V domains shown)
VH: EVQLLESGGALVQPGGSLRLSCAASGFTFSSYAMNWVRQAPGKGLEWVSAISVGGDTYYADSVKGRFTISRDNSKNTLYLHVNSLSAEDSAVYYCAKDQVTLVRGVWYYYGLDVWGQGTTVTVSS
VL: VIVLIQSPLSLPVTPGEPASISCRSSQSLLHSNGNNYLDWYLQKPGQSPHLLISLGSNRTSGVPDRFSGSGSGTDFTLKISRVEAEDVGFYYCMQALQPPRRFGQGTKLEIKR
notes: 32B5.1 was purified hybridoma IgG2 or IgG4; later converted to human IgG1; also called Ab-10; 32B5.1
B2: 33C7 (antibody, V domains shown)
VH: B1 VH
VL: B1 VL
notes: Tested as purified hybridoma IgG2 or IgG4; also called Ab-11; 33C7_HC#1
B3: 35D2 (antibody, V domains shown)
VH: B1 VH with D56G, S86R, S90T, L102M
VL: B1 VL
notes: also called Ab-15; 35D2.1
B4: 29C12 (antibody, V domains shown)
VH: B1 VH with H81Q, V82M, S86R, S90T, L102M
VL: B1 VL with V1D, L4M, F90V
notes: also called Ab-8; 29C12.1
B5: 37B2 (antibody, V domains shown)
VH: B1 VH with S31N
VL: B1 VL
notes: Tested as purified hybridoma IgG2 or IgG4; also called Ab-16; 37B2.1
B6: 32H3 (antibody, V domains shown)
VH: EVQLLESGGGLVQPGGSLRLSCAASGFTFSSYAMSWVRQAPGKGLKWVSAISGGAGNTYYADSVKGRFTISRDISKSTVYLQMTSLRAEDTAIYYCAKDGVGTTGGYFYYHGMDVWGQGTTVTVSS
VL: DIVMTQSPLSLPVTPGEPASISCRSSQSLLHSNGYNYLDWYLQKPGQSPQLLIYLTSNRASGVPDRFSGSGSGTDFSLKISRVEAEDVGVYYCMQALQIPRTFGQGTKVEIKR
notes: Tested as purified hybridoma IgG2 or IgG4; also called Ab-12; 32H3.1
B7: 30E1 (antibody, V domains shown)
VH: EVQLLESGGGLVQPGGSLRLSCAASGFTFSSHAMSWVRQAPGKGLEWVSAISGGDGNTYYADSVKGRFAISRDNSKNVVYLQMNSLRAEDTAVYFCAKDLVGVVAGYYYYFGMDVWGQGTTVTVSS
VL: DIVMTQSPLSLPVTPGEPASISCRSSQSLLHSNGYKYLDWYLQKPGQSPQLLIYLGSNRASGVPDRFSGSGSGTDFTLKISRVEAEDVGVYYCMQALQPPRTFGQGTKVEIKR
notes: Tested as purified hybridoma IgG2 or IgG4; also called Ab-9; 30E1.1
B8: 40D7 (antibody, V domains shown)
VH: B1 VH with H81Q, V82M, S86R, S90T, L102M
VL: B1 VL with V1D, L4M, Y37F, F67L, F90I, Q98R
notes: also called Ab-17; 40D7.1
B9: 33D4 (antibody, V domains shown)
VH: QVQLQQSGPGLVKPSQTLSLTCAISGDSVSSTNVAWNWIRQSPSRGLEWLGGTFYRSNWYNDYAISVKSRITINPDTSKNQFSLQLNSVTPEDTAVYYCARFYSWNSYFDYWGQGILVTVSS
VL: QPVLTQPPSASASLGASVTLTCTLSSGYSNYKVDWYQHRPGKGPRFVMRVGTGGIVGSKGDGIPDRFSVLGSGLNRYLTIKNIQEEDESDFHCGADHGSETNFVYVFGTGTKVTVLG
notes: Tested as purified hybridoma IgG2 or IgG4; also called Ab-14; 33D4.1
B10: 32B5-MCC-DM1 (antibody drug conjugate) (other)
VH: B1 VH
VL: B1 VL
modifications: antibody carries DM1 through the MCC linker; sites not stated
B11: 1E1-PEG4-Mal-DM4 (antibody drug conjugate) (other)
VH: QVQLVQSGAEVKKPGASVKVSCKASGYTFTGHYIHWVRQAPGQGLEWMGWIYPNSGGTNYAQKFQGRVTMTRDTSISTAYMELSRLRSDDSAVYYCAREGMVTGDYYYYRMDVWGQGTTVIVSS
VL: B9 VL with T23S, H38Q, T52I, E100G, T101N
modifications: antibody carries DM4 through the PEG4-Mal linker; sites not stated
B12: 1E1-MCC-DM1 (antibody drug conjugate) (other)
VH: B11 VH
VL: B9 VL with T23S, H38Q, T52I, E100G, T101N
modifications: antibody carries DM1 through the MCC linker; sites not stated
B13: 2A1 Covariance 4 (2A1_D84N + C107T) (antibody, human IgG1, lambda, V domains shown)
VH: EVQLVESGGGLVKPGRSLRLSCTASGFTFGDYALSWFRQAPGKGLEWVGVSRSKAYGGTTDYAASVKGRFTISRDNSKSFAYLQMNSLKTEDTAVYYCTSSGYSSGWTPFDYWGQGTLVTVSS
VL: not shown
B14: 2A1 Covariance 11 (2A1_F44V + C107A + S108K) (antibody, human IgG1, lambda, V domains shown)
VH: B13 VH with F37V, N76D, T99A, S100K
VL: not shown
B15: 2A1 Covariance 6 (2A1_C107A) (antibody, human IgG1, lambda, V domains shown)
VH: B13 VH with N76D, T99A
VL: not shown
B16: 2A1 Covariance 5 (2A1_F88T + C107T) (antibody, human IgG1, lambda, V domains shown)
VH: B13 VH with N76D, F80T
VL: not shown
B17: 2A1 Covariance 13 (2A1_F44V + F88T + C107A) (antibody, human IgG1, lambda, V domains shown)
VH: B13 VH with F37V, N76D, F80T, T99A
VL: not shown
B18: 2A1 Covariance 7 (2A1_S108K + C107T) (antibody, human IgG1, lambda, V domains shown)
VH: B13 VH with N76D, S100K
VL: not shown
B19: 2A1 Covariance 14 (2A1_T24A + F44V + F88T + C107A) (antibody, human IgG1, lambda, V domains shown)
VH: B13 VH with T23A, F37V, N76D, F80T, T99A
VL: not shown
B20: 2A1 Covariance 12 (2A1_T24A + F44V + F88T + C107T) (antibody, human IgG1, lambda, V domains shown)
VH: B13 VH with T23A, F37V, N76D, F80T
VL: not shown
B21: 32B5 (N69Q) (antibody, human IgG1, kappa, V domains shown)
VH: B1 VH
VL: B1 VL with N58Q
notes: also called 32B5 (LC: N69Q); P70169.3
B22: 32B5 (T71A) (antibody, human IgG1, kappa, V domains shown)
VH: B1 VH
VL: B1 VL with T60A
notes: also called 32B5 (LC: T71A); P70170.3

Biological target: T1, human BCMA (huBCMA), full length, on cells (human, UniProt Q02223 1-184)
T1 construct: also called native huBCMA; B-cell maturation antigen
T1 chain: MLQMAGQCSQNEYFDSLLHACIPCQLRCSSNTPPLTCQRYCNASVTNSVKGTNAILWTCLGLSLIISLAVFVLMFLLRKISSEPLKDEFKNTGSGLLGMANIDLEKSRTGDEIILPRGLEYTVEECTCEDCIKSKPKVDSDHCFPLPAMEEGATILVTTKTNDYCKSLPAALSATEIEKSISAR
Experiment: FACS

| Binder | MFI |
| --- | --- |
| B1 | 137000 |
| B2 | 132000 |
| B3 | 129000 |
| B4 | 82600 |
| B5 | 83700 |
| B6 | 97700 |
| B7 | 109000 |

Each binder was assayed against T2, cynomolgus BCMA, on transiently transfected 293T cells (cynomolgus (Macaca fascicularis), UniProt Q02223 1-184 (human entry)) (assay: FACS).
T2 construct: also called cyno BCMA
T2 sequence (Q02223 other isoform, or with tags, fused parts or gaps): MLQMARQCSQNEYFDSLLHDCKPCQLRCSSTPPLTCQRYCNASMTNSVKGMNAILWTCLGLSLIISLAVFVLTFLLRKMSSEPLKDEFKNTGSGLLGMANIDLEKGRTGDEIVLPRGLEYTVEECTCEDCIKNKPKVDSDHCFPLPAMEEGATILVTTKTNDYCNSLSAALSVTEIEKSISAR

| Binder | MFI |
| --- | --- |
| B1 | 259000 |
| B2 | 238000 |
| B3 | 198000 |
| B4 | 97300 |
| B5 | 136000 |
| B6 | 51200 |
| B7 | 78500 |

Each binder was assayed against T3, TACI, full length, on transiently transfected cells (human, UniProt O14836 1-293) (assay: FACS).
T3 construct: whole, on cells; also called huTACI
T3 sequence (looked up): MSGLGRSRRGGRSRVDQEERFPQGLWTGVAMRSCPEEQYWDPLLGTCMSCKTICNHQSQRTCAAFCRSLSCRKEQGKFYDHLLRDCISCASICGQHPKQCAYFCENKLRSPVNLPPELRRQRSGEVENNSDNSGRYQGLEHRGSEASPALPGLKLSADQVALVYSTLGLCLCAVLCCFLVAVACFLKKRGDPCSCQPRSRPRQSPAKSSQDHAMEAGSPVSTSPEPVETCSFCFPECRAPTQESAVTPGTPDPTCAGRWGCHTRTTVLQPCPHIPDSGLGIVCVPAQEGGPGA

| Binder | MFI | binding result |
| --- | --- | --- |
| B1 | 274 | no binding |
| B2 | 1890 | no binding |
| B3 | 506 | no binding |
| B4 | 256 | no binding |
| B5 | 1040 | no binding |
| B6 | 1360 | no binding |
| B7 | 555 | no binding |

Biological target: T1, human BCMA (huBCMA), full length, on …
Experiment: FACS
Remark: another data set of the same source

| Binder | MFI |
| --- | --- |
| B8 | 36300 |
| B9 | 89900 |

Biological target: T2, cynomolgus BCMA, on transiently …
Experiment: FACS
Remark: another data set of the same source

| Binder | MFI |
| --- | --- |
| B8 | 39300 |
| B9 | 19400 |

Biological target: T3, TACI, full length, on transiently …
Experiment: FACS
Remark: another data set of the same source

| Binder | MFI | binding result |
| --- | --- | --- |
| B8 | 1390 | no binding |
| B9 | 261 | no binding |

What follows are binders tested against T4, BAFF-R, full length, on transiently transfected cells (human, UniProt Q96RJ3 1-184) (assay: FACS).
T4 construct: whole, on cells; also called huBAFF-R
T4 sequence (looked up): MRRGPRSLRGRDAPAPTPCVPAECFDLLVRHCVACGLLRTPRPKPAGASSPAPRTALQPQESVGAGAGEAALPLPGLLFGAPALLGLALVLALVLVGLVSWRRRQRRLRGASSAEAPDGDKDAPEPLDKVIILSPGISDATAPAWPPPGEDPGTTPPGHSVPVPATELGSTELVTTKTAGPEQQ

| Binder | MFI | binding result |
| --- | --- | --- |
| B9 | 723 | no binding |

The binders below were run against T2, cynomolgus BCMA, on transiently … (assay: FACS O/N).

| Binder | MFI |
| --- | --- |
| B1 | 108 |
| B2 | 109 |
| B3 | 152 |
| B4 | 110 |
| B5 | 104 |
| B6 | 122 |
| B7 | 130 |

Biological target: T1, human BCMA (huBCMA), full length, on …
Experiment: cell-based or functional assay

| Binder | H929 cell growth inhibition IC50 (CellTiter-Glo, 96 h) [nM] | cell viability IC50 (CellTiter-Glo, 96 h), H929 cells [nM] |
| --- | --- | --- |
| B10 | 0.506 |  |
| B11 |  | 0.68 |
| B12 |  | 0.63 |

Biological target: T1, human BCMA (huBCMA), full length, on …
Experiment: cell-based or functional assay
Remark: another data set of the same source

| Binder | ADCC EC50 [µg/mL] |
| --- | --- |
| B13 | 0.028 |
| B14 | 0.364 |
| B15 | 0.0169 |
| B16 | 0.016 |
| B17 | 0.0327 |
| B18 | 0.0191 |
| B19 | 0.0417 |
| B20 | 0.111 |

Biological target: T1, human BCMA (huBCMA), full length, on …
Experiment: FACS, H929 cells

| Binder | binding result |
| --- | --- |
| B21 | binds |
| B22 | binds |

Biological target: T1, human BCMA (huBCMA), full length, on …
Experiment: APRIL blocking FACS
Set-up: concentration or dose not given beside the values

| Binder | % Inhibition n=1 [%] | % Inhibition n=2 [%] | Avg. % Inhibition [%] |
| --- | --- | --- | --- |
| B1 | 87 | 116 | 101 |
| B2 | 68 | 88 | 78 |
| B3 | 57 | 82 | 70 |
| B4 | 30 | 62 | 46 |
| B5 | 37 | 58 | 48 |
| B6 | 20 | 47 | 33 |
| B7 | 31 | 46 | 38 |

Biological target: T1, human BCMA (huBCMA), full length, on …
Experiment: FACS on H929 cells, native BCMA, relative binding, indirect

| Binder | EC50 [nM] |
| --- | --- |
| B10 | 7 |
| B1 | 4.2 |
